{"source": "the supplement of paper PMC10724198", "note": "± gives the standard deviation of the averaged measurements.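 Further: PSI is a weighted mean of sequencing reads over stability bins, variants kept only with over 10 reads, mCherry proximal and sfGFP distal, peptide attached via GGGS linker.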", "data": [{"system": "Saccharomyces cerevisiae", "assay": "protein stability index of tFT-peptide fusion (C-terminal peptide) (PSI (0-1 scale)); higher = more stable (slower turnover)", "details": "genetic background: wild type; temperature: 30 C", "procedure": "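Multiplexed protein stability (MPS) profiling in S. cerevisiae. Random 12-aa peptides (tFT-X12 library) are fused to the C-terminus of a sfGFP-mCherry tandem fluorescent timer, after mCherry and a GGGS linker. Cells are FACS-sorted into 8 mCherry/sfGFP bins and deep-sequenced. The protein stability index (PSI) is the read-weighted bin average, scaled from 0 (unstable) to 1 (stable). Only peptides with >10 reads are reported; cells were grown at 30 °C in SC-His with glucose.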", "values": [{"sequence": "DFWSEFILLCSV", "protein stability index": "0.6019 ± 0.0039"}, {"sequence": "DGAAGTGGAMGF", "protein stability index": "0.669 ± 0.068"}, {"sequence": "DGAVRLGGGGLG", "protein stability index": "0.664 ± 0.05"}, {"sequence": "DGCRFEFVPSGD", "protein stability index": "0.629 ± 0.023"}, {"sequence": "DGDIIVVQINKL", "protein stability index": "0.6471 ± 0.0039"}, {"sequence": "DGECVLGVFVGA", "protein stability index": "0.706 ± 0.045"}, {"sequence": "DGGFAAPDVIGA", "protein stability index": "0.682 ± 0.026"}, {"sequence": "DGGSEIWGWDGT", "protein stability index": "0.743 ± 0.12"}, {"sequence": "DGHSMFNRLIRS", "protein stability index": "0.64232 ± 0.00017"}, {"sequence": "DGKAGRKGFWRK", "protein stability index": "0.746 ± 0.023"}, {"sequence": "DGNDSILTKLPL", "protein stability index": "0.714 ± 0.021"}, {"sequence": "DGRYVDSEIDNP", "protein stability index": "0.714 ± 0.059"}, {"sequence": "DGSRSFSYSTAG", "protein stability index": "0.642 ± 0.1"}, {"sequence": "DGVATLYGRDVE", "protein stability index": "0.646 ± 0.033"}, {"sequence": "DGVIVACWCRRS", "protein stability index": "0.66 ± 0.021"}, {"sequence": "DGVRGWVGVAGD", "protein stability index": "0.698 ± 0.039"}, {"sequence": "DGVSRSHFQCVS", "protein stability index": "0.708 ± 0.044"}, {"sequence": "DHLPSPRPRPPP", "protein stability index": "0.7295 ± 0.0012"}, {"sequence": "DHSAPIIPMMKV", "protein stability index": "0.6239 ± 0.0058"}, {"sequence": "DICYGVALSQVE", "protein stability index": "0.676 ± 0.045"}, {"sequence": "DIDGKRLLGCWI", "protein stability index": "0.6632 ± 0.00086"}, {"sequence": "DIKKLNKKAKIK", "protein stability index": "0.777 ± 0.15"}, {"sequence": "DIRVFFNSREGN", "protein stability index": "0.742 ± 0.022"}, {"sequence": "DKGTGYIVKRIT", "protein stability index": "0.6872 ± 0.0044"}, {"sequence": "DKHGELFIVCKV", "protein stability index": "0.54 ± 0.033"}, {"sequence": "DKKGRIKIKNRQ", "protein stability index": "0.618 ± 0.026"}, {"sequence": "DKKKKTKINNKK", "protein stability index": "0.698 ± 0.01"}, {"sequence": "DKWVRDCLTESR", "protein stability index": "0.691 ± 0.014"}, {"sequence": "DLFSALWGEYVL", "protein stability index": "0.741 ± 0.013"}, {"sequence": "DLGQVLSEASAS", "protein stability index": "0.742 ± 0.034"}, {"sequence": "DLGRRRVGPKGA", "protein stability index": "0.717 ± 0.024"}, {"sequence": "DLIHLVVIVPMV", "protein stability index": "0.554 ± 0.035"}, {"sequence": "DLIKCPTNMVRL", "protein stability index": "0.646 ± 0.068"}, {"sequence": "DLKGCVTFCTSI", "protein stability index": "0.638 ± 0.049"}, {"sequence": "DLLKFGPKVLHL", "protein stability index": "0.6592 ± 0.0023"}, {"sequence": "DLLLGDCGVGWF", "protein stability index": "0.647 ± 0.056"}, {"sequence": "DLMFSLFPLSFF", "protein stability index": "0.704 ± 0.0076"}, {"sequence": "DLRDQDAQTTST", "protein stability index": "0.692 ± 0.0088"}, {"sequence": "DLSPPLPPPAHP", "protein stability index": "0.674 ± 0.044"}, {"sequence": "DNQQRQKKKNKK", "protein stability index": "0.65 ± 0.013"}, {"sequence": "DNRKIRSEKITP", "protein stability index": "0.69 ± 0.099"}, {"sequence": "DPCWLEFRESGG", "protein stability index": "0.704 ± 0.12"}, {"sequence": "DPEDPPRAREPQ", "protein stability index": "0.673 ± 0.038"}, {"sequence": "DPLKSFDAVRQD", "protein stability index": "0.617 ± 0.06"}, {"sequence": "DPPSPLPRVSPP", "protein stability index": "0.706 ± 0.068"}, {"sequence": "DPRPPRPDFRPS", "protein stability index": "0.691 ± 0.072"}, {"sequence": "DPRPRLNCSYEH", "protein stability index": "0.68 ± 0.014"}, {"sequence": "DPSMSNRDRRLP", "protein stability index": "0.708 ± 0.036"}, {"sequence": "DQKFSPYRTPPF", "protein stability index": "0.667 ± 0.058"}, {"sequence": "DQNRSTTVPRGY", "protein stability index": "0.686 ± 0.075"}, {"sequence": "DQVDGLFTCSAR", "protein stability index": "0.739 ± 0.027"}, {"sequence": "DRGCRRRCVGGG", "protein stability index": "0.683 ± 0.011"}, {"sequence": "DRGGCRRAGSCQ", "protein stability index": "0.69 ± 0.018"}, {"sequence": "DRHGLVGGWWAW", "protein stability index": "0.7459 ± 0.0052"}, {"sequence": "DRLCAAPHYGTH", "protein stability index": "0.599 ± 0.045"}, {"sequence": "DRLLLSPSPTPP", "protein stability index": "0.739 ± 0.013"}, {"sequence": "DRLNLFSSFEGT", "protein stability index": "0.721 ± 0.053"}, {"sequence": "DRLVGRVGGHGM", "protein stability index": "0.755 ± 0.14"}, {"sequence": "DRNGAQAEISFV", "protein stability index": "0.6 ± 0.041"}, {"sequence": "DRPTPPPRSSPL", "protein stability index": "0.739 ± 0.058"}, {"sequence": "DRREKAKNMTKG", "protein stability index": "0.67 ± 0.025"}, {"sequence": "DRRTGRAGEMSP", "protein stability index": "0.669 ± 0.064"}, {"sequence": "DRSRLWSHPCPG", "protein stability index": "0.647 ± 0.0098"}, {"sequence": "DRSSVLSPFHPL", "protein stability index": "0.76 ± 0.019"}, {"sequence": "DRTDTNVKWRKK", "protein stability index": "0.696 ± 0.0077"}, {"sequence": "DRVMTLRLTVNP", "protein stability index": "0.691 ± 0.03"}, {"sequence": "DRWGGDWMERGG", "protein stability index": "0.749 ± 0.05"}, {"sequence": "DSKDLTPATQVS", "protein stability index": "0.699 ± 0.013"}, {"sequence": "DSLWACVGSSAL", "protein stability index": "0.771 ± 0.024"}, {"sequence": "DSMLACIHPSPI", "protein stability index": "0.708 ± 0.0064"}, {"sequence": "DSNLAVHRWYIS", "protein stability index": "0.573 ± 0.018"}, {"sequence": "DSPRSLALFRSC", "protein stability index": "0.642 ± 0.028"}, {"sequence": "DSQGSVHPEAQE", "protein stability index": "0.723 ± 0.012"}, {"sequence": "DSSAFVPATILD", "protein stability index": "0.705 ± 0.026"}, {"sequence": "DSSKFYTPATLL", "protein stability index": "0.693 ± 0.048"}, {"sequence": "DSSLCFAGLHNT", "protein stability index": "0.705 ± 0.054"}, {"sequence": "DSSLHRLASLKT", "protein stability index": "0.643 ± 0.075"}, {"sequence": "DSSLSRPGRLLP", "protein stability index": "0.73 ± 0.012"}, {"sequence": "DSVSLPYVSRPL", "protein stability index": "0.768 ± 0.041"}, {"sequence": "DTALMQAGSLFH", "protein stability index": "0.651 ± 0.054"}, {"sequence": "DTPLIYSLKSEC", "protein stability index": "0.7511 ± 0.0022"}, {"sequence": "DVLLKVDATKTP", "protein stability index": "0.685 ± 0.032"}, {"sequence": "DVRVFQMLQGDI", "protein stability index": "0.709 ± 0.012"}, {"sequence": "DVTKLVLSIDSC", "protein stability index": "0.751 ± 0.052"}, {"sequence": "DWEPGGGGRMVG", "protein stability index": "0.703 ± 0.081"}, {"sequence": "DWKLPRIEREST", "protein stability index": "0.678 ± 0.024"}, {"sequence": "DWVDFFQSVIWI", "protein stability index": "0.761 ± 0.0079"}, {"sequence": "DWVYISAGGRYA", "protein stability index": "0.657 ± 0.017"}, {"sequence": "EAEEVGRVVLKG", "protein stability index": "0.643 ± 0.067"}, {"sequence": "EAERDEAQRRCA", "protein stability index": "0.686 ± 0.0076"}, {"sequence": "EAFARGAPNQTS", "protein stability index": "0.804 ± 0.066"}, {"sequence": "EALELALTWHCV", "protein stability index": "0.7029 ± 0.0058"}, {"sequence": "EANEENNSSKRD", "protein stability index": "0.686 ± 0.03"}, {"sequence": "ECGNYRGPYRTR", "protein stability index": "0.678 ± 0.026"}, {"sequence": "ECRGGPGLGGGV", "protein stability index": "0.635 ± 0.046"}, {"sequence": "ECSFAGIWVDLG", "protein stability index": "0.689 ± 0.047"}, {"sequence": "EDDQETPDTVQS", "protein stability index": "0.66 ± 0.014"}, {"sequence": "EDHSCVFSAFCF", "protein stability index": "0.663 ± 0.045"}]}]}
